From article PMC8219681, “Inhibition of MRN activity by a telomere protein motif” (Nature Communications, 2021)
Residue numbers refer to the chain shown, from its start. Names and notes keep the numbering of the source.

Legend:
[1] = target: T1, MBP-Rif2-min (S. cerevisiae Rif2 F8E P10N), Q06208; test: pull-down (amylose-immobilized MBP-Rif2-min bait, Western blot with anti-Rad50 antibody, quantified); details: chain shown with the change; three independent blots; mean with SEM; parent: est. 100; read off a plot
T1 chain: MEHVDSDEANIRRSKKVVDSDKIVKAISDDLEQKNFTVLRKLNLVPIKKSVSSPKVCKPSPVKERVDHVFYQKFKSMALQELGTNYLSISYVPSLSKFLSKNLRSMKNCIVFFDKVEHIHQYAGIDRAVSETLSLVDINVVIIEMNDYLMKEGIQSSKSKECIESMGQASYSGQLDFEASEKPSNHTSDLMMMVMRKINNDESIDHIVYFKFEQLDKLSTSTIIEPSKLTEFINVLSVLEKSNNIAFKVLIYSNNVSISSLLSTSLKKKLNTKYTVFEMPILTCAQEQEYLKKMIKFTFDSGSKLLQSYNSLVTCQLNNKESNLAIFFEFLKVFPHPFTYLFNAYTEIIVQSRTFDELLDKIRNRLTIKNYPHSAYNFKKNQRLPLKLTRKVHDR

[2] = target: T2, Rif2-min (Saccharomyces cerevisiae, UniProt Q06208 1-395, F8E;P10N); test: EMSA; 5 mM Mg2+, 1 mM Mn2+, 1 mM ATP; 25 mM Tris-acetate pH 7.5, 1 mM DTT, 5 mM Mg acetate, 1 mM Mn acetate, 0.25 mg/ml BSA, 1 mM PEP, 1 mM ATP, 80 U/ml pyruvate kinase, 1 nM DNA, 30 C 30 min; 6% PAGE in TAE; details: protein: recombinant; tags: C-terminal His (N-terminal MBP cleaved with PreScission); label: 32P; blunt
T2 sequence: T1 chain

[3] = target: T3, Rif2 (Saccharomyces cerevisiae, UniProt Q06208 1-395); test: as above; details: protein: recombinant; tags: C-terminal His (N-terminal MBP cleaved with PreScission); label: 32P; blunt
T3 sequence: T1 chain with E8F, N10P

B1: m3; m1 Rad50:K81I; Rif2:F8E; Rif2:P10N (protein)
chain: MSAIYKLSIQGIRSFDSNDRETIEFGKPLTLIVGMNGSGKTTIIECLKYATTGDLPPNSKGGVFIHDPKITGEKDIRAQVILAFTSANGLNMIVTRNIQLLMKKTTTTFKTLEGQLVAINNSGDRSTLSTRSLELDAQVPLYLGVPKAILEYVIFCHQEDSLWPLSEPSNLKKKFDEIFQAMKFTKALDNLKSIKKDMSVDIKLLKQSVEHLKLDKDRSKAMKLNIHQLQTKIDQYNEEVSEIESQLNEITEKSDKLFKSNQDFQKILSKVENLKNTKLSISDQVKRLSNSIDILDLSKPDLQNLLANFSKVLMDKNNQLRDLETDISSLKDRQSSLQSLSNSLIRRQGELEAGKETYEKNRNHLSSLKEAFQHKFQGLSNIENSDMAQVNHEMSQFKAFISQDLTDTIDQFAKDIQLKETNLSDLIKSITVDSQNLEYNKKDRSKLIHDSEELAEKLKSFKSLSTQDSLNHELENLKTYKEKLQSWESENIIPKLNQKIEEKNNEMIILENQIEKFQDRIMKTNQQADLYAKLGLIKKSINTKLDELQKITEKLQNDSRIRQVFPLTQEFQRADLEMDFQKLFINMQKNIAINNKKMHELDRRYTNALYNLNTIEKDLQDNQKSKEKVIQLLSENLPEDCTIDEYNDVLEETELSYKTALENLKMHQTTLEFNRKALEIAERDSCCYLCSRKFENESFKSKLLQELKTKTDANFEKTLKDTVQNEKEYLHSLRLLEKHIITLNSINEKIDNSQKCLEKAKEETKTSKSKLDELEVDSTKLKDEKELAESEIRPLIEKFTYLEKELKDLENSSKTISEELSIYNTSEDGIQTVDELRDQQRKMNDSLRELRKTISDLQMEKDEKVRENSRMINLIKEKELTVSEIESSLTQKQNIDDSIRSKRENINDIDSRVKELEARIISLKNKKDEAQSVLDKVKNERDIQVRNKQKTVADINRLIDRFQTIYNEVVDFEAKGFDELQTTIKELELNKAQMLELKEQLDLKSNEVNEEKRKLADSNNEEKNLKQNLELIELKSQLQHIESEISRLDVQNAEAERDKYQEESLRLRTRFEKLSSENAGKLGEMKQLQNQIDSLTHQLRTDYKDIEKNYHKEWVELQTRSFVTDDIDVYSKALDSAIMKYHGLKMQDINRIIDELWKRTYSGTDIDTIKIRSDEVSSTVKGKSYNYRVVMYKQDVELDMRGRCSAGQKVLASIIIRLALSETFGANCGVIALDEPTTNLDEENIESLAKSLHNIINMRRHQKNFQLIVITHDEKFLGHMNAAAFTDHFFKVKRDDRQKSQIEWVDINRVTY
B1 gave a percent of parent (Relative value) [1] of 14.

B2: PC1253C/PC1253B 50 bp dsDNA (dsDNA)
DNA 1: AACGTCATAGACGATTACATTGCTAGGACATCTTTGCCCACGTTGACCCA
DNA 2: TGGGTCAACGTGGGCAAAGATGTCCTAGCAATGTAATCGTCTATGACGTT
modifications: 3'-terminal biotin (stated for the nuclease substrate; strand(s) ambiguous; streptavidin not mentioned for EMSA)
B2: binds [2]; binds [3].
